Data taken from patent US20160272683A1 (Novo Nordisk, published 2016).
Numbered stars: 1 amine (or outer) side, 2 acyl side, 3 side chain; on linkers, the order of the positions; unused ones are H or OH. * marks the point of attachment. C20 diacid = O=C(O)CCCCCCCCCCCCCCCCCCC(=O)*; C18 diacid = O=C(O)CCCCCCCCCCCCCCCCC(=O)*; γGlu = O=C(O)[C@H](CCC(=O)[*:2])N[*:1]

B1: [N-terminal(C20 diacid-gGlu), des1, 12H, 25H, 30T, 31G, 32T]mimylin (peptide)
peptide: {C20 diacid-γGlu}-ASELSTAALGHLSAELHELATLPHTETGTGTP-NH2
SMILES: CC(C)C[C@H](NC(=O)[C@H](C)NC(=O)[C@H](C)NC(=O)[C@@H](NC(=O)[C@H](CO)NC(=O)[C@H](CC(C)C)NC(=O)[C@H](CCC(=O)O)NC(=O)[C@H](CO)NC(=O)[C@H](C)NC(=O)CC[C@H](NC(=O)CCCCCCCCCCCCCCCCCCC(=O)O)C(=O)O)[C@@H](C)O)C(=O)NCC(=O)N[C@@H](Cc1c[nH]cn1)C(=O)N[C@@H](CC(C)C)C(=O)N[C@@H](CO)C(=O)N[C@@H](C)C(=O)N[C@@H](CCC(=O)O)C(=O)N[C@@H](CC(C)C)C(=O)N[C@@H](Cc1c[nH]cn1)C(=O)N[C@@H](CCC(=O)O)C(=O)N[C@@H](CC(C)C)C(=O)N[C@@H](C)C(=O)N[C@H](C(=O)N[C@@H](CC(C)C)C(=O)N1CCC[C@H]1C(=O)N[C@@H](Cc1c[nH]cn1)C(=O)N[C@H](C(=O)N[C@@H](CCC(=O)O)C(=O)N[C@H](C(=O)NCC(=O)N[C@H](C(=O)NCC(=O)N[C@H](C(=O)N1CCC[C@H]1C(N)=O)[C@@H](C)O)[C@@H](C)O)[C@@H](C)O)[C@@H](C)O)[C@@H](C)O
B2: [N-terminal(C20 diacid-gGlu), des1, 23Y, 30S, 31G, 34G, C-terminal(-)]mimylin (peptide)
peptide: {C20 diacid-γGlu}-ASELSTAALGRLSAELHELATYPRTETGSGSPG-OH
SMILES: CC(C)C[C@H](NC(=O)[C@H](C)NC(=O)[C@H](C)NC(=O)[C@@H](NC(=O)[C@H](CO)NC(=O)[C@H](CC(C)C)NC(=O)[C@H](CCC(=O)O)NC(=O)[C@H](CO)NC(=O)[C@H](C)NC(=O)CC[C@H](NC(=O)CCCCCCCCCCCCCCCCCCC(=O)O)C(=O)O)[C@@H](C)O)C(=O)NCC(=O)N[C@@H](CCCNC(=N)N)C(=O)N[C@@H](CC(C)C)C(=O)N[C@@H](CO)C(=O)N[C@@H](C)C(=O)N[C@@H](CCC(=O)O)C(=O)N[C@@H](CC(C)C)C(=O)N[C@@H](Cc1c[nH]cn1)C(=O)N[C@@H](CCC(=O)O)C(=O)N[C@@H](CC(C)C)C(=O)N[C@@H](C)C(=O)N[C@H](C(=O)N[C@@H](Cc1ccc(O)cc1)C(=O)N1CCC[C@H]1C(=O)N[C@@H](CCCNC(=N)N)C(=O)N[C@H](C(=O)N[C@@H](CCC(=O)O)C(=O)N[C@H](C(=O)NCC(=O)N[C@@H](CO)C(=O)NCC(=O)N[C@@H](CO)C(=O)N1CCC[C@H]1C(=O)NCC(=O)O)[C@@H](C)O)[C@@H](C)O)[C@@H](C)O
B3: [N-terminal(C20 diacid-gGlu), des1, 9T, 21S, 23Y, 30S, 31G]mimylin (peptide)
peptide: {C20 diacid-γGlu}-ASELSTATLGRLSAELHELSTYPRTETGSGSP-NH2
SMILES: CC(C)C[C@H](NC(=O)[C@H](CCCNC(=N)N)NC(=O)CNC(=O)[C@H](CC(C)C)NC(=O)[C@@H](NC(=O)[C@H](C)NC(=O)[C@@H](NC(=O)[C@H](CO)NC(=O)[C@H](CC(C)C)NC(=O)[C@H](CCC(=O)O)NC(=O)[C@H](CO)NC(=O)[C@H](C)NC(=O)CC[C@H](NC(=O)CCCCCCCCCCCCCCCCCCC(=O)O)C(=O)O)[C@@H](C)O)[C@@H](C)O)C(=O)N[C@@H](CO)C(=O)N[C@@H](C)C(=O)N[C@@H](CCC(=O)O)C(=O)N[C@@H](CC(C)C)C(=O)N[C@@H](Cc1c[nH]cn1)C(=O)N[C@@H](CCC(=O)O)C(=O)N[C@@H](CC(C)C)C(=O)N[C@@H](CO)C(=O)N[C@H](C(=O)N[C@@H](Cc1ccc(O)cc1)C(=O)N1CCC[C@H]1C(=O)N[C@@H](CCCNC(=N)N)C(=O)N[C@H](C(=O)N[C@@H](CCC(=O)O)C(=O)N[C@H](C(=O)NCC(=O)N[C@@H](CO)C(=O)NCC(=O)N[C@@H](CO)C(=O)N1CCC[C@H]1C(N)=O)[C@@H](C)O)[C@@H](C)O)[C@@H](C)O
B4: [N-terminal(C20 diacid-gGlu), des1, 9S, 23Y, 30S, 31G, 33Y]mimylin (peptide)
peptide: {C20 diacid-γGlu}-ASELSTASLGRLSAELHELATYPRTETGSGSY-NH2
SMILES: CC(C)C[C@H](NC(=O)[C@H](CO)NC(=O)[C@H](C)NC(=O)[C@@H](NC(=O)[C@H](CO)NC(=O)[C@H](CC(C)C)NC(=O)[C@H](CCC(=O)O)NC(=O)[C@H](CO)NC(=O)[C@H](C)NC(=O)CC[C@H](NC(=O)CCCCCCCCCCCCCCCCCCC(=O)O)C(=O)O)[C@@H](C)O)C(=O)NCC(=O)N[C@@H](CCCNC(=N)N)C(=O)N[C@@H](CC(C)C)C(=O)N[C@@H](CO)C(=O)N[C@@H](C)C(=O)N[C@@H](CCC(=O)O)C(=O)N[C@@H](CC(C)C)C(=O)N[C@@H](Cc1c[nH]cn1)C(=O)N[C@@H](CCC(=O)O)C(=O)N[C@@H](CC(C)C)C(=O)N[C@@H](C)C(=O)N[C@H](C(=O)N[C@@H](Cc1ccc(O)cc1)C(=O)N1CCC[C@H]1C(=O)N[C@@H](CCCNC(=N)N)C(=O)N[C@H](C(=O)N[C@@H](CCC(=O)O)C(=O)N[C@H](C(=O)NCC(=O)N[C@@H](CO)C(=O)NCC(=O)N[C@@H](CO)C(=O)N[C@@H](Cc1ccc(O)cc1)C(N)=O)[C@@H](C)O)[C@@H](C)O)[C@@H](C)O
B5: [N-terminal(C18 diacid-gGlu), des1, 4Q, 16Q, 30S, 31G]mimylin (peptide)
peptide: {C18 diacid-γGlu}-ASQLSTAALGRLSAQLHELATLPRTETGSGSP-NH2
SMILES: CC(C)C[C@H](NC(=O)[C@H](C)NC(=O)[C@H](C)NC(=O)[C@@H](NC(=O)[C@H](CO)NC(=O)[C@H](CC(C)C)NC(=O)[C@H](CCC(N)=O)NC(=O)[C@H](CO)NC(=O)[C@H](C)NC(=O)CC[C@H](NC(=O)CCCCCCCCCCCCCCCCC(=O)O)C(=O)O)[C@@H](C)O)C(=O)NCC(=O)N[C@@H](CCCNC(=N)N)C(=O)N[C@@H](CC(C)C)C(=O)N[C@@H](CO)C(=O)N[C@@H](C)C(=O)N[C@@H](CCC(N)=O)C(=O)N[C@@H](CC(C)C)C(=O)N[C@@H](Cc1c[nH]cn1)C(=O)N[C@@H](CCC(=O)O)C(=O)N[C@@H](CC(C)C)C(=O)N[C@@H](C)C(=O)N[C@H](C(=O)N[C@@H](CC(C)C)C(=O)N1CCC[C@H]1C(=O)N[C@@H](CCCNC(=N)N)C(=O)N[C@H](C(=O)N[C@@H](CCC(=O)O)C(=O)N[C@H](C(=O)NCC(=O)N[C@@H](CO)C(=O)NCC(=O)N[C@@H](CO)C(=O)N1CCC[C@H]1C(N)=O)[C@@H](C)O)[C@@H](C)O)[C@@H](C)O
B6: [N-terminal(C18 diacid-gGlu), des1, 6T, 9V, 30S, 31G]mimylin (peptide)
peptide: {C18 diacid-γGlu}-ASELTTAVLGRLSAELHELATLPRTETGSGSP-NH2
SMILES: CC(C)C[C@H](NC(=O)[C@H](CCC(=O)O)NC(=O)[C@H](Cc1c[nH]cn1)NC(=O)[C@H](CC(C)C)NC(=O)[C@H](CCC(=O)O)NC(=O)[C@H](C)NC(=O)[C@H](CO)NC(=O)[C@H](CC(C)C)NC(=O)[C@H](CCCNC(=N)N)NC(=O)CNC(=O)[C@H](CC(C)C)NC(=O)[C@@H](NC(=O)[C@H](C)NC(=O)[C@@H](NC(=O)[C@@H](NC(=O)[C@H](CC(C)C)NC(=O)[C@H](CCC(=O)O)NC(=O)[C@H](CO)NC(=O)[C@H](C)NC(=O)CC[C@H](NC(=O)CCCCCCCCCCCCCCCCC(=O)O)C(=O)O)[C@@H](C)O)[C@@H](C)O)C(C)C)C(=O)N[C@@H](C)C(=O)N[C@H](C(=O)N[C@@H](CC(C)C)C(=O)N1CCC[C@H]1C(=O)N[C@@H](CCCNC(=N)N)C(=O)N[C@H](C(=O)N[C@@H](CCC(=O)O)C(=O)N[C@H](C(=O)NCC(=O)N[C@@H](CO)C(=O)NCC(=O)N[C@@H](CO)C(=O)N1CCC[C@H]1C(N)=O)[C@@H](C)O)[C@@H](C)O)[C@@H](C)O
B7: [N-terminal(C20 diacid-gGlu), des1, 23Y, 30S, 31G, 34K, C-terminal(-)]mimylin (peptide)
peptide: {C20 diacid-γGlu}-ASELSTAALGRLSAELHELATYPRTETGSGSPK-OH
SMILES: CC(C)C[C@H](NC(=O)[C@H](C)NC(=O)[C@H](C)NC(=O)[C@@H](NC(=O)[C@H](CO)NC(=O)[C@H](CC(C)C)NC(=O)[C@H](CCC(=O)O)NC(=O)[C@H](CO)NC(=O)[C@H](C)NC(=O)CC[C@H](NC(=O)CCCCCCCCCCCCCCCCCCC(=O)O)C(=O)O)[C@@H](C)O)C(=O)NCC(=O)N[C@@H](CCCNC(=N)N)C(=O)N[C@@H](CC(C)C)C(=O)N[C@@H](CO)C(=O)N[C@@H](C)C(=O)N[C@@H](CCC(=O)O)C(=O)N[C@@H](CC(C)C)C(=O)N[C@@H](Cc1c[nH]cn1)C(=O)N[C@@H](CCC(=O)O)C(=O)N[C@@H](CC(C)C)C(=O)N[C@@H](C)C(=O)N[C@H](C(=O)N[C@@H](Cc1ccc(O)cc1)C(=O)N1CCC[C@H]1C(=O)N[C@@H](CCCNC(=N)N)C(=O)N[C@H](C(=O)N[C@@H](CCC(=O)O)C(=O)N[C@H](C(=O)NCC(=O)N[C@@H](CO)C(=O)NCC(=O)N[C@@H](CO)C(=O)N1CCC[C@H]1C(=O)N[C@@H](CCCCN)C(=O)O)[C@@H](C)O)[C@@H](C)O)[C@@H](C)O

Experiments:
[1] = target: T1, human calcitonin receptor (human, UniProt P30988 25-474); test: cell-based or functional assay
T1 sequence (looked up): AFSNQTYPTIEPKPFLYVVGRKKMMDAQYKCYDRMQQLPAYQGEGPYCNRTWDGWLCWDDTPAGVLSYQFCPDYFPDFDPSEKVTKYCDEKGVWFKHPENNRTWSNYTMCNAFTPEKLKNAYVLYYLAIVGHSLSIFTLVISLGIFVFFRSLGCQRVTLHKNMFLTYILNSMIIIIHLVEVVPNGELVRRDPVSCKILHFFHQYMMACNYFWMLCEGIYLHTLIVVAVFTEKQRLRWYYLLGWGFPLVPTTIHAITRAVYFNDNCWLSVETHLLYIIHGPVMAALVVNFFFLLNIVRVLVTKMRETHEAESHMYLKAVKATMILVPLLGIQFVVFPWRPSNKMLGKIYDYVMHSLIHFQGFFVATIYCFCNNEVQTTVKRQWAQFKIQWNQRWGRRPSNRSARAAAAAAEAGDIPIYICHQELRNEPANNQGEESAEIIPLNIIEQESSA

[2] = target: T2, human amylin 3(a) receptor (human calcitonin receptor co-expressed with RAMP-3) (human, UniProt P30988 25-474; O60896 24-148, limits assumed); test: cell-based or functional assay
T2 sequence (looked up) 1: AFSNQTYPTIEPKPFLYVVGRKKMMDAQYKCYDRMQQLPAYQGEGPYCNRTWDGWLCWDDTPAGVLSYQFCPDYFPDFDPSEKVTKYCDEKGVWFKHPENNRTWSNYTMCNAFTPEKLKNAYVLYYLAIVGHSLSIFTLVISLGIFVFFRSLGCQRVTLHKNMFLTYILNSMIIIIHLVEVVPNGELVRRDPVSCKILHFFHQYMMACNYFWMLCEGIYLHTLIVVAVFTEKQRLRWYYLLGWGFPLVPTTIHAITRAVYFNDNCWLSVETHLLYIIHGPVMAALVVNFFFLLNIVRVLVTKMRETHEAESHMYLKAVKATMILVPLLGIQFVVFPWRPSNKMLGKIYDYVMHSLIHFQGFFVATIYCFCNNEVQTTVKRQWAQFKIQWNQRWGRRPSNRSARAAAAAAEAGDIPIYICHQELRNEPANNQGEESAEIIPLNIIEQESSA
T2 sequence (looked up) 2: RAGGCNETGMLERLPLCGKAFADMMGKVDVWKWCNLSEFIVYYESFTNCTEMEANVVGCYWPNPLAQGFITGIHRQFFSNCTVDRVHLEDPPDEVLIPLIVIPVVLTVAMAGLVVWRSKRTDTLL

| Binder | hCTR funct. EC50 (pM) [1] | hAmylin-R funct. EC50 (pM) [2] |
| --- | --- | --- |
| B1 | 24 pM | 64 pM |
| {C18 diacid-γGlu}-ASEVSTAVLGRLSAELHELATLPRTETGSGSP-NH2 [[N-terminal(C18 diacid-gGlu), des1, 5V, 9V, 30S, 31G]mimylin] | 13 pM | 32 pM |
| B2 | 64 pM | 187 pM |
| B3 | 23 pM | 22 pM |
| B4 | 41 pM | 37 pM |
| B5 | 13 pM | 9 pM |
| {C18 diacid-γGlu}-ASELTTAVLGRLSAELHELATLPRTETGSGTP-NH2 [[N-terminal(C18 diacid-gGlu), des1, 6T, 9V, 30S, 31G, 32T]mimylin] | 30 pM | 42 pM |
| B6 | 28 pM | 33 pM |
| {C20 diacid-γGlu}-ASELSTAALGRLSAELHELATYPRTETGSGSY-OH [[N-terminal(C20 diacid-gGlu), des1, 23Y, 30S, 31G, 33Y, C-terminal(-)]mimylin] | 127 pM | 461 pM |
| B7 | 88 pM | 239 pM |
